From a protein production outcome set (Wang et al. 2014) come the findings set out here.

This data set in a line: label from the status in PepcDB records.
“MPANKKEGLIFGVMMCFGMVCVMSIYNAIINRAIYDFSLMTVFEMVIGFMIALLLDLLLVGPLAKKIAFRMPFDKTKKIYVILAMSTCMVIGMVLCMSVFGLVTAVLANGLNGDSLFSAYLMIVLKNFILAYPLQLLIMGPLVRGVFMKFVKPKLTAAI”: the protein production result is given as “failed”. In the case of “MKRIKLVRHGESAANAGQASRNHESIPLTHRGLEQAITVARSFTKAPELIVASPFSRAQATAQETSAIFPTVAIETWPIQEFTYLAPARCVDTTVAQRRDWVDAYWARAEPAFCDGEGAESFLDFVYRAQAFLKQLAGHSAANTVVFSHGQFLNAVAWLLERRPQSLDRHAMADWRRYEIENHIPNGCGFYLSQSSTGAEWVLGHRNY” it was “failed”; in that of “MQDSRPHPHDWNVSTDEAKRIQRRLASEVTERALPDGGETVAGIDVSVRDDTAQAAVSVLRLPELDVVDEATHRCEVPFPYVPGLLSFREMPAVLPALERLHSTPDVFVTDSHGAAHPRRFGLACHLGVLLDAPAIGVAKSILVGAPQGELGPEKGSRVPLVDDGETVGTVLRTRTDVNPVYVSVGHRCTLDGAADLMLDCSPRYKIPEPTRQAHKLSRAEG”, “failed”. Next, “MIRKLMICIAVLVGFCPMAWGTVDDVPNPKTYDADNWVSDPDHILDSETKNKINDILQQLEDSLTIEVAVVALNSIGEEEPHEFAVTLFNLWGVGKAKDDNGLLILLTRDIRDITFKTGYGLEGVLPDAICKRIQMETMVPHLRENDWNTGMLEGVKAVAAVLYGSDYQAAPPEAWIKKFRRTTPSLVFIVFALMLILINWLVWKSAVHRMTPKDEGTEAALALLATRNPFTARTLLGLCWLVPVWPAMLGIACWYFGIQKQKTLRRSRTCPKCNRETLREIPLHELIKDTKRLTESERKETELKTAYIRIYRCSACSEEVKIRIPLEKDGYECCPSCGHMTLHKEEKYRTIIKATTSSEGLMEARHRCMYCDAEYMVGYTIPKINPSSRRSGGSGGGGGGSFGGGSSGGGGSSSRF”: “failed”; “MKIRDLLKARRGPLFSFEFFPPKDPEGEEALFRTLEELKAFRPAFVSITYGAMGSTRERSVAWAQRIQSLGLNPLAHLTVAGQSRKEVAEVLHRFVESGVENLLALRGDPPRGERVFRPHPEGFRYAAELVALIRERYGDRVSVGGAAYPEGHPESESLEADLRHFKAKVEAGLDFAITQLFFNNAHYFGFLERARRAGIGIPILPGIMPVTSYRQLRRFTEVCGASIPGPLLAKLERHQDDPKAVLEIGVEHAVRQVAELLEAGVEGVHFYTLNKSPATRMVLERLGLRPASGQP”: “not failed”; “MAIVGTILFAFYSVAIAAAWFFFGQNQTILAIAIVGSVVLVGVQYKVGKWMALRSVGAEDMDEQEFPRIHRRVESLSRDMGIKKPTLKVANMGVPNAFAVGRKGNGTVVVSRELIDILEHEELDGVLAHELSHIANRDVVTMQLGQGIASIVGIVAQYIVLFSGDNDLADFFLAIVVGNLVQFLVTLFVLAISRYREYVADADARRAIGTGEPLARALEKISQGNEQAAQQQRQRTSRGRGRRQRGQRNDDGLDQQVSALCISSPDTSVLQKLVSTHPPTEKRIQRLRS”: “failed”. On to “MEKKLAPQFDNFYQSCRRYFQKLSRNKNFRSLKVYLLILTIVMVVIINPLSSNISGIVNILPTTTEKITHKSSAQQTDKQSHKTSNKAAYKTSWIGNTFGGKKWVQIQMEGIYVTPNGTVYVNSHWDEAGREVGIYKDGDVIGKADDLHGWGRLGGKAITANQKYLYVAMRQSHEGKPEDDYPPKGTTWYNVRRYDLSGKPAPFAGGRGWDKSMLIVNSKNDVTGLATKDKELYVSDPANDRLRVYNTDTMQELRSFSVPNPGAIAVDRQNNLWVVQKKKIVRYSPQGKQLAQQITDVANPSAIAFDPQGRLLVADNGKRQQVLIYNIANKPKQVGTLGDKGGIYGGTSGEVKDGKLYGITGVGTDKSGNIYVSNHGFNSTGADLRKFSSSGKLQWRLLGLQFIDNADADPDSDGRDVFTKNEHFVMDYSKNNGKEWTYKGYTLDKFRYPDDGRLHTTPTSAFVRRLGGKRLLYLSSEMMAERLLIYRFDGEIAVPCGIFGKNHLSWPPNQPKDGSWLWRDVNGDGSIQNNEYKTLGEEDGSVWGWEIDSKGDIWQAAEAGYIKHYPYQKLDNHGCPIYGQAVGGRIPMPAPFKTLTRIKYFPKQDVMYLGGYTNEHPNLDGDWGLVGTEIVRYDNWSKKRNLRWRIVLPYNHQTDPKLHIKSIDVAGDRVFAVASKKAEVYVYKATTGEALQMLTPGAEVGGESGWIDIPYGIRAFRRANGEYLVFVEENAKGKVLMYRLPG”, for which the protein production result is recorded as “failed”.
